In US20200231681A1:

Legend:
[1] = biological target: EGFR on HCC827 cells (EGFR E746-A750 deletion mutation) (human) (UniProt P00533); experiment: cell-based or functional assay
[2] = biological target: c-Met receptor on human tumor cells (MKN45, NCI-H820, HCC827) (human) (UniProt P08581); experiment: cell-based or functional assay
[3] = biological target: cynomolgus monkey EGFR ECD (SiNo. Biological, 90285-008B) (cynomolgus monkey); experiment: SPR (BIAcore), antibody captured by anti-human IgG Fc, antigen as analyte, 1:1 Langmuir
[4] = biological target: c-Met receptor on human tumor cells (MKN45, NCI-H820, HCC827) (human) (UniProt P08581); experiment: flow cytometry on MKN45 cells, 100 nM control antibody, anti-human kappa LC-FITC (column of hu8C4)
[5] = biological target: c-Met receptor on human tumor cells (MKN45, NCI-H820, HCC827) (human) (UniProt P08581); experiment: flow cytometry on MKN45 cells, 100 nM control antibody, anti-human kappa LC-FITC (column of OA-5D5)

Chain of c-Met receptor on human tumor cells (MKN45, NCI-H820, HCC827) (human) (P08581 25-1390): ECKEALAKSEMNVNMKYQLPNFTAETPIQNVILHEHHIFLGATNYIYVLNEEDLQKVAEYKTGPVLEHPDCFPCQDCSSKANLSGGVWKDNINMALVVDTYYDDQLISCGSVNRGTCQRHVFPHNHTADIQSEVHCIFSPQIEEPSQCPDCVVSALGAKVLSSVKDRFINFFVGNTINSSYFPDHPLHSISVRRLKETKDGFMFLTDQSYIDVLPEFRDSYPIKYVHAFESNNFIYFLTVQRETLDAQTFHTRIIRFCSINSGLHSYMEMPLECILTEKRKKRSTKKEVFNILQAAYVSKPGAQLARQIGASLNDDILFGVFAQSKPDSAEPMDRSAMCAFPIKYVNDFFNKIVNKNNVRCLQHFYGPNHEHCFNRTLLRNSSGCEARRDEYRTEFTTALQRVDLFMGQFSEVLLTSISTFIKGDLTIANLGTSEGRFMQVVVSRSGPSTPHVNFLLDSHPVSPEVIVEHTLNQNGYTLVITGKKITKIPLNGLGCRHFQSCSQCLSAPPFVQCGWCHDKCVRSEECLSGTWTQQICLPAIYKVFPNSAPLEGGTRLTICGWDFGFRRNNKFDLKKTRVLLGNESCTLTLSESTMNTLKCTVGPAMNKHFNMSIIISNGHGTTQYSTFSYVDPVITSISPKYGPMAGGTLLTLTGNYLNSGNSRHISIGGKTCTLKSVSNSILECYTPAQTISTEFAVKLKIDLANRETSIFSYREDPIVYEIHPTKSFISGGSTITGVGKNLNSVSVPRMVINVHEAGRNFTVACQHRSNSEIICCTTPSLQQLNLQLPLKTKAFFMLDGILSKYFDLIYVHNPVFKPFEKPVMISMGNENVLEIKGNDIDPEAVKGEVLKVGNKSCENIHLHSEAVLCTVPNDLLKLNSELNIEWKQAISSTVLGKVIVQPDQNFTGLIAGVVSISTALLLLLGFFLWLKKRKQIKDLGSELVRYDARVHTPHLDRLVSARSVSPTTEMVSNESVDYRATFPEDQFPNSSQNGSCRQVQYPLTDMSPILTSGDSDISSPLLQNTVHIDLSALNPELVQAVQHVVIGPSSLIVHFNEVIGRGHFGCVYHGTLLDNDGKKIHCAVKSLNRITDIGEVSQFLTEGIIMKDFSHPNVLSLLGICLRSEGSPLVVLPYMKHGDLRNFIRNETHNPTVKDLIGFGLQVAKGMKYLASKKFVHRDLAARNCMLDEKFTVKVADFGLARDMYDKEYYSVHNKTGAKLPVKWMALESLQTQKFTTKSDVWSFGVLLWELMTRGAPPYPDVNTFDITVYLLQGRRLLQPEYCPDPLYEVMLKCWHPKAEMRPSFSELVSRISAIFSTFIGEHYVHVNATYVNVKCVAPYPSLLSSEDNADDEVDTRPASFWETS

| Substance | c-Met on the surface of HCC827 cells after 18 h with 100 nM antibody, Means (geo MFI); human IgG control 5653 [2] [geo MFI] | decrease of c-Met on the surface of HCC827 cells [2] [%] | also measured |
| --- | --- | --- | --- |
| C-EM1 (EM1-MAb, Janssen; control c-Met/EGFR bispecific antibody) | 3660 | 40 | EGFR on the surface of HCC827 cells after 18 h with 100 nM antibody, Means (geo MFI); human IgG control 11494 [1]: 11500 geo MFI |
| Vectibix (antibody) | – | – | Kd [3]: 210 pM |
| human IgG antibody (negative control) | – | – | FITC MFI [IgG control] (FITC geo-mean (MFI)) [4]: 127; FITC MFI [IgG control] (FITC geo-mean (MFI)) [5]: 127 |
| C-LA480 (LA480, Lilly; control c-Met antibody) | 3270 | 40 | – |
